# Experimental data published in paper PMC10998906 (NPJ Vaccines, 2024).
# B1: CR9114 Fab (Fab, V domains shown)
# VH: QVQLVQSGAEVKKPGSSVKVSCKSSGGTSNNYAISWVRQAPGQGLDWMGGISPIFGSTAYAQKFQGRVTISADIFSNTAYMELNSLTSEDTAVYFCARHGNYYYYSGMDVWGQGTTVTVSS
# VL: QSALTQPPAVSGTPGQRVTISCSGSDSNIGRRSVNWYQQFPGTAPKLLIYSNDQRPSVVPDRFSGSKSGTSASLAISGLQSEDEAEYYCAAWDDSLKGAVFGGGTQLTVL
# Molecular target: H5 GCN4 (IN05 HA, GCN4-trimerized) (Influenza A virus …, UniProt A5A5L7, stabilised)
# Assay: negative-stain EM
# Details: both partners purified
binder,measurement,value
B1,stoichiometry N,3 Fabs per trimer
